For 5 molecules, stoichiometry N results are on record in publication PMC4703963.

The term stoichiometry N denotes a count of units in the complex or per binding partner.

What all share (settings): remark: other sources report otherwise
In experiment [1] the target is Prolyl hydroxylase domain protein 2 (PHD2), endogenous (human (endogenous in U2OS, H2030, A549)), Q9GZT9. The experiment in a line: non-reducing SDS-PAGE with immunoblot; total cell lysates (1% IGEPAL, 150 mM NaCl, 50 mM Tris-HCl pH 7.9, no reducing agent) in sample buffer without β-ME; cells treated with H2O2 (50-200 uM), T-hydro (1-3 uM), diamide (0.1-1 mM), 10% FBS or expressing H-ras V12. (In western blotting, separated proteins are transferred to a membrane and probed.)

The target in experiment [2] is Flag-tagged PHD2 purified from HEK293T cells (human), Q9GZT9. Nature of the experiment: non-reducing SDS-PAGE with immunoblot; tagged PHD2 affinity-purified (Flag or HA gel, peptide elution) from H2O2-treated HEK293T cells, run without DTT.
The target of experiment [3] is Wild-type HA-PHD2 purified from HEK293T cells (human), Q9GZT9. The experiment is described as above.
The target of experiment [4] is Flag-tagged PHD2 (with an HA-tagged copy of PHD2 in the co-immunoprecipitation) (human), Q9GZT9. The experiment in a line: non-reducing SDS-PAGE with immunoblot; total cell lysates (1% IGEPAL, 150 mM NaCl, 50 mM Tris-HCl pH 7.9, no reducing agent) in sample buffer without β-ME; cells treated with H2O2 (50-200 uM), T-hydro (1-3 uM), diamide (0.1-1 mM), 10% FBS or expressing H-ras V12.

Experiment [5] concerns the target Flag-tagged catalytic domain of PHD2 (181-426) (human), Q9GZT9. The description is as above.

B1: Prolyl hydroxylase domain protein 2 (PHD2), endogenous, Q9GZT9 1-426 (natural protein)
chain: MANDSGGPGGPSPSERDRQYCELCGKMENLLRCSRCRSSFYCCKEHQRQDWKKHKLVCQGSEGALGHGVGPHQHSGPAPPAAVPPPRAGAREPRKAAARRDNASGDAAKGKVKAKPPADPAAAASPCRAAAGGQGSAVAAEAEPGKEEPPARSSLFQEKANLYPPSNTPGDALSPGGGLRPNGQTKPLPALKLALEYIVPCMNKHGICVVDDFLGKETGQQIGDEVRALHDTGKFTDGQLVSQKSDSSKDIRGDKITWIEGKEPGCETIGLLMSSMDDLIRHCNGKLGSYKINGRTKAMVACYPGNGTGYVRHVDNPNGDGRCVTCIYYLNKDWDAKVSGGILRIFPEGKAQFADIEPKFDRLLFFWSDRRNPHEVQPAYATRYAITVWYFDADERARAKVKYLTGEKGVRVELNKPSDSVGKDVF
The molecule B1 displayed a stoichiometry N in experiment [1] of 2.

B2: Flag-tagged PHD2 purified from HEK293T cells, Q9GZT9 1-426 (natural protein)
chain: B1 chain
The molecule B2 registered a stoichiometry N in experiment [2] of 2.

B3: Wild-type HA-PHD2 purified from HEK293T cells, Q9GZT9 1-426 (natural protein)
chain: B1 chain
B3: the stoichiometry N in experiment [3] amounted to 2.

B4: Flag-tagged PHD2 (with an HA-tagged copy of PHD2 in the co-immunoprecipitation), Q9GZT9 1-426 (natural protein)
chain: B1 chain
Take B4: the stoichiometry N in experiment [4] stood at 2.

B5: Flag-tagged catalytic domain of PHD2 (181-426), Q9GZT9 181-426 (domain or fragment)
chain: PNGQTKPLPALKLALEYIVPCMNKHGICVVDDFLGKETGQQIGDEVRALHDTGKFTDGQLVSQKSDSSKDIRGDKITWIEGKEPGCETIGLLMSSMDDLIRHCNGKLGSYKINGRTKAMVACYPGNGTGYVRHVDNPNGDGRCVTCIYYLNKDWDAKVSGGILRIFPEGKAQFADIEPKFDRLLFFWSDRRNPHEVQPAYATRYAITVWYFDADERARAKVKYLTGEKGVRVELNKPSDSVGKDVF
Regarding B5, the stoichiometry N in experiment [5] was determined as 2.
